The results in this text go back to patent US20180264110A1 (STSCIENCES, published 2018).

The target of experiment [1] is T1, N75/2NQ (human, UniProt Q7Z6A9).
T1 construct: double mutant, single glycosylation site N75; One member of the group m43; also called BTLA double mutant that retains only the N75 glycosylation site
In words: Western blot of BTLA WT and glycosylation-site mutants probed with STC613 [continued]. As for the experimental part:
(§1) Immunoblot analysis was performed as described previously (Lim et al., 2008, Gastroenterology, 135:21 28-40; and Lee et al., 2007, Cell, 130:440-455). Image acquisition and quantitation of band intensity were performed using a Chemdoc Imager (BioRad, Hercules, Calif., US). The secondary antibodies were anti-mouse or -rabbit Alexa Fluor 488 or 594, and nuclei were stained with 4′,6-diamidino-2-phenylindole (DAPI) (Life Technologies, Carlsbad, Calif., US).
(§2) In the Western blot assays, anti-BTLA mAbs were tested for their ability to recognize fully glycosylated wild-type BTLA and to recognize certain BTLA mutants lacking two (N75/2NQ, N94/2NQ, N116/2NQ) or all three (3NQ) of BTLA's N-glycosylation sites. […] Generally, the band intensities shown in the Western blots of FIG. 2 indicate the specific glycosylation motif recognized by each of the tested antibodies and the binding strength of the tested antibodies to the recognized glycosylation motifs.
On the technique in general: A western blot detects proteins with antibodies after separation by electrophoresis.

The next experiment concerns the target T2, BTLA triple mutant (3NQ) (human, UniProt Q7Z6A9 31-289, limits assumed).
T2 construct: N to Q read from the label
T2 chain: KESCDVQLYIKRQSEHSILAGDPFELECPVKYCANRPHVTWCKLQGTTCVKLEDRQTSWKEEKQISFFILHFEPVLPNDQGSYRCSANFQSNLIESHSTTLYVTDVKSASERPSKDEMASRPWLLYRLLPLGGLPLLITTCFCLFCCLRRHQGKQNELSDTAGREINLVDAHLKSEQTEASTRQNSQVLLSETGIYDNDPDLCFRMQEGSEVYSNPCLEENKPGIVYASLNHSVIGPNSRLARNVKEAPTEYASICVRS
Briefly: Western blot. The method, then: as §1, §2

Experiment [2] addresses T1, N75/2NQ. In words: Western blot of BTLA WT and glycosylation-site mutants probed with STC626 [continued]. As for the experimental part:
as §1, §2

B1: STC613 (antibody, V domains shown)
VH: EVQLQQSGAELVRPGASVKLSCTASGFNIRDDYVHWLKQRPDQGLEWIGRIDPANGKTKYDPKFQDKATITADTSSNTAYLQLSSLTSEDTAVYFCVREGGSNYDYAMDYWGQGTSVTVSS
VL: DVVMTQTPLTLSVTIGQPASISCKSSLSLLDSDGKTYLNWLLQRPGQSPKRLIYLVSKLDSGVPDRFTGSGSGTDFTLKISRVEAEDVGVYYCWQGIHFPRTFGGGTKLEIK
notes: also called STM613
As to B1, the binding result is recorded as “binds” with N75/2NQ [1] and “no binding” in the experiment with BTLA triple mutant (3NQ).

B2: STC626 (antibody, V domains shown)
VH: QIQLVQSGPELKKPGETVKISCKASGYTFTNYGMNWVKQAPGKGLKWMGWINTNTGEPTYAEEFKGRIAFSLESSASTAYLQINNLKNEDTATYFCAREGVRRGGYFFDYWGQGTTLTVSS
VL: DIQMTQSPASLSVSVGETVTITCRASENIYSNLAWYQQKQGKSPQLLVYAATNLADGVPSRFSGSGSGTQYSLKINSLQSEDFGSYHCQHFWGFPFTFGAGTKLEIKR
In the case of B2, the binding result is reported as “binds” in the experiment with N75/2NQ [2] and “no binding” with BTLA triple mutant (3NQ).
